Results as given in patent publication US20250076311A1 (Chugai, published 2025).
Residue numbers refer to the chain shown, from its start. Numbers in names are those of the source. Blank lines part the entries; values can stand above or below the binder they belong to.

Assays:
[1] = target: T1, cynomolgus monkey FcγRIIIaS extracellular domain with C-terminal His-tag (cynomolgus monkey, UniProt Q8SPW2 21-206 at identity 1.00)); assay: SPR, KD(parent SG1)/KD(variant)
T1 construct: also called cyno FcgRIIIaS; cynoFcγRIIIaS
T1 chain: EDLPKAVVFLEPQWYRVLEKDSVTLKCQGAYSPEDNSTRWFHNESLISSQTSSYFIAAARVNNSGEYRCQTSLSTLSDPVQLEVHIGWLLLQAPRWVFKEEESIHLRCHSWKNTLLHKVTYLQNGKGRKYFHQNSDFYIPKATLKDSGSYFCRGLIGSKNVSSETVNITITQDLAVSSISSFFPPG

[2] = target: T2, human FcγRIIb extracellular domain with C-terminal His-tag (human, UniProt P31994 43-217); assay: SPR, KD(parent SG1)/KD(variant)
T2 construct: also called human FcgRIIb
T2 sequence: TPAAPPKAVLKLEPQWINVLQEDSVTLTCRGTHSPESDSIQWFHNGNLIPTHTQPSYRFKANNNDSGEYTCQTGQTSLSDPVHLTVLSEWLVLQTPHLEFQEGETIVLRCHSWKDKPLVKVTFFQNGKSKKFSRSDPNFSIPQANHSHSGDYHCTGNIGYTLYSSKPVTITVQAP

[3] = target: T3, cynomolgus monkey FcγRIIa3 extracellular domain with C-terminal His-tag (cynomolgus monkey); assay: SPR; KD of SG1 / KD of variant
T3 construct: also called cyno FcγRIIa3; FcgRIIa3
T3 chain: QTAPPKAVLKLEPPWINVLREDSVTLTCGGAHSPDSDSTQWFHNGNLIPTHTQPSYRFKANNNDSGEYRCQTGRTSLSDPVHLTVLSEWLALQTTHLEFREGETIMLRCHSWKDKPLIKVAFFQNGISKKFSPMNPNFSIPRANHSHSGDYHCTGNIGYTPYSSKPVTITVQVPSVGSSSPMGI
Procedure: (§1) The kinetic analysis of interactions between these antibodies and FcγR was carried out using BIACORE® T200 or BIACORE® 4000 (GE Healthcare). HBS-EP+ (GE Healthcare) was used as the running buffer, and the measurement temperature was set to 25° C. […] After the measurement, the antibody captured on the chip was washed off by allowing reaction with 10 mM glycine-HCl, pH1.5 and 25 mM NaOH so that the chip was regenerated and used repeatedly. The sensorgrams obtained as measurement results were analyzed by the 1:1 Langmuir binding model using the BIACORE® Evaluation Software to calculate the binding rate constant ka (L/mol/s) and dissociation rate constant kd (1/s), and the dissociation constant KD (mol/L) was calculated from these values. […] Regarding such interactions, KD values were calculated using the following 1:1 binding model described in BIACORE® T100 Software Handbook BR1006-48 Edition AE.

[4] = target: T4, cynomolgus monkey FcγRIIIaS extracellular domain with C-terminal His-tag (cynomolgus monkey, UniProt Q8SPW2 21-206 at identity 1.00)); assay: SPR; KD of SG1 / KD of variant
T4 construct: also called cyno FcγRIIIaS; FcgRIIIaS
T4 chain: T1 chain
Procedure: as §1

[5] = target: T5, human FcγRIIaH extracellular domain with C-terminal His-tag (human, UniProt P12318 34-217); assay: SPR (BIACORE), antibody captured, FcgR analyte
T5 construct: also called human FcgRIIaH; FcγRIIa type H; not shown: His-tag added to the C-terminus
T5 sequence: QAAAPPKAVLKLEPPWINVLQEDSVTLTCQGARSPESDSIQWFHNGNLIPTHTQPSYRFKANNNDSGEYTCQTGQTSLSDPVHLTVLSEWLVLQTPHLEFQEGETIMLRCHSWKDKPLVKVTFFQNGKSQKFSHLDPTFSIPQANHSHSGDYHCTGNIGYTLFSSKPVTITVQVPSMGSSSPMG

[6] = target: T6, cynomolgus monkey FcγRIIa1 extracellular domain with C-terminal His-tag (cynomolgus monkey); assay: SPR (BIACORE), antibody captured, FcgR analyte
T6 construct: also called cyno FcgRIIa1; cynoFcγRIIa1; not shown: His-tag added to the C-terminus
T6 chain: T3 chain with T95P, A121T, S128A, P133H, N135D

[7] = target: T7, cynomolgus monkey FcγRIIIaS extracellular domain with C-terminal His-tag (cynomolgus monkey, UniProt A3RFZ7 21-206 (rhesus entry)); assay: SPR (BIACORE), antibody captured, FcgR analyte
T7 construct: also called cyno FcgRIIIaS; cynoFcγRIIIaS; not shown: His-tag added to the C-terminus

[8] = target: T8, human FcγRIIIaV extracellular domain with C-terminal His-tag (human, UniProt P08637 17-208); assay: SPR (BIACORE), antibody captured, FcgR analyte
T8 construct: also called human FcgRIIIaV; not shown: His-tag added to the C-terminus
T8 sequence (P08637 17-208 F176V): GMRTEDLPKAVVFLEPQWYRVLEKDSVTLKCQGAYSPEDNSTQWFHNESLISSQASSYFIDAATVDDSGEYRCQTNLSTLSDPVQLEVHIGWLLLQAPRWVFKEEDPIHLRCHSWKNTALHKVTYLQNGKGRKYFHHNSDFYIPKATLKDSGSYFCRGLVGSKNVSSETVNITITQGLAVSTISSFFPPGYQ

[9] = target: T9, cynomolgus monkey FcγRIIa3 extracellular domain with C-terminal His-tag (cynomolgus monkey); assay: SPR (BIACORE), antibody captured, FcgR analyte
T9 construct: also called cyno FcgRIIa3; cynoFcγRIIa3; not shown: His-tag added to the C-terminus
T9 chain: T3 chain

[10] = target: T10, human FcγRIIaR extracellular domain with C-terminal His-tag (human, UniProt P12318 34-217); assay: SPR (BIACORE), antibody captured, FcgR analyte
T10 construct: also called human FcgRIIaR; FcγRIIa type R; not shown: His-tag added to the C-terminus
T10 chain: T5 sequence with H134R

[11] = target: T11, human FcγRIIaR extracellular domain with C-terminal His-tag (human, UniProt P12318 34-217); assay: SPR; KD of SG1 / KD of variant
T11 construct: also called human FcγRIIa (type R); FcgRIIaR
T11 chain: T5 sequence with H134R
Procedure: as §1

[12] = target: T7, cynomolgus monkey FcγRIIIaS …; assay: SPR (BIACORE); KD of SG1 / KD of variant
[13] = target: T12, human FcγRIIb extracellular domain with C-terminal His-tag (human, UniProt P31994 43-217); assay: SPR (BIACORE), antibody captured, FcgR analyte
T12 construct: also called human FcgRIIb; not shown: His-tag added to the C-terminus
T12 sequence: T2 sequence

[14] = target: T13, human FcγRIIaH extracellular domain, His-tagged (human, UniProt P12318 34-217); assay: SPR (Biacore), 25C, FcgR bound per antibody captured
T13 construct: also called human FcgRIIaH; FcγRIIa type H
T13 sequence: T5 sequence

[15] = target: T14, human FcγRIIb extracellular domain, His-tagged (human, UniProt P31994 43-217); assay: as above
T14 construct: also called human FcgRIIb
T14 sequence: T2 sequence

[16] = target: T15, human FcγRIIaR extracellular domain, His-tagged (human, UniProt P12318 34-217); assay: as above
T15 construct: also called human FcgRIIaR; FcγRIIa type R
T15 chain: T5 sequence with H134R

[17] = target: T16, human FcγRIIIaV extracellular domain, His-tagged (human, UniProt P08637 17-208); assay: as above
T16 construct: also called human FcgRIIIaV
T16 sequence (P08637 17-208 F176V): as above

B2: M103205H795-MY227 (heavy chain) with M103202L889-SK1 (light chain) (antibody, human IgG1, kappa, name in EU numbering)
heavy: QVTLKESGPVLVKPTETLTLTCTVSGIDLSHDDISWVRQAPGKGLEWVGIISYAGSTYYASWAKGRLTISKDTSKNQVVLTMTNMDPVDTATYYCARGVPAYSHGGDLWGQGTLVTVSSASTKGPSVFPLAPSSKSTSGGTAALGCLVKDYFPEPVTVSWNSGALTSGVHTFPAVLQSSGLYSLSSVVTVPSSSLGTQTYICNVNHKPSNTKVDKKVEPKSCDKTHTCPPCPAPELLGYPSVFLFPPKPKDTLMISRTPEVTCVVVDVSDEDPEVKFNWYVDGVEVHNAKTKPREEQYNSTYRVVSVLTVLHQDWLNGKEYKCKVSNKALPKPIEKTISKAKGQPREPQVYTLPPSREEMTKNQVSLTCLVKGFYPSDIAVEWESNGQPENNYKTTPKVLDSDGSFFLYSKLTVDKSRWQQGNVFSCSVMHEALHNHYTQKSLSLSP
light: DIVMTQSPATLSLSPGERATLSCTSSQSVYHANWLSWFQQKPGQPPKLLIYWASTLAYGVPSRFSGSGSGTDFTLTISSLQPEDAATYYCAGGYGGGRYAFGQGTKVEIKRTVAAPSVFIFPPSDEQLKSGTASVVCLLNNFYPREAKVQWKVDNALQSGNSQESVTEQDSKDSTYSLSSTLTLSKADYEKHKVYACEVTHQGLSSPVTKSFNRGEC
notes: Substitutions introduced into M103205H795-SG1; positions in EU numbering
KD fold (SG1 = 1) [3]: 6.8 fold
KD fold (SG1 = 1) [4]: 0.09 fold

B3: M103205H795-MY321 (heavy chain) with M103202L889-SK1 (light chain) (antibody, human IgG1, kappa, name in EU numbering)
heavy: B2 heavy with G238H, Y239G, K398M
light: B2 light
notes: as for B2
KD fold (SG1 = 1) [3]: 5.9 fold

B4: M103205H795-MY199/M103202L889-SK1 (antibody, human IgG1, kappa, name in EU numbering)
heavy: B2 heavy with G238N, Y239G, D270E, K398P
light: B2 light
notes: Fc variant of MS1032LO06-SG1; positions in EU numbering
Kd [5]: 1100 nM
Kd [6]: 1900 nM
Kd [7]: 41 nM
Kd [8]: 13000 nM

B5: M103205H795-MY280 (heavy chain) with M103202L889-SK1 (light chain) (antibody, human IgG1, kappa, name in EU numbering)
heavy: B2 heavy with G238V, Y239G, Q297L, K398P
light: B2 light
notes: as for B2
KD fold (SG1 = 1) [3]: 3.7 fold
KD fold (SG1 = 1) [4]: 0.2 fold

B6: M103205H795-MY289/M103202L889-SK1 (antibody, human IgG1, kappa, name in EU numbering)
heavy: B2 heavy with G238N, Y239G, D270H, K398M
light: B2 light
notes: as for B4
Kd [9]: 8600 nM
Kd [6]: 1500 nM
Kd [7]: 5200 nM
Kd [10]: 3500 nM

B7: M103205H795-MY229 (heavy chain) with M103202L889-SK1 (light chain) (antibody, human IgG1, kappa, name in EU numbering)
heavy: B2 heavy with Q297L
light: B2 light
notes: as for B2
KD fold (SG1 = 1) [11]: 13.6 fold
KD fold (SG1 = 1) [3]: 8.9 fold
KD fold (SG1 = 1) [4]: 0.09 fold

B8: M103205H795-MY105/M103202L889-SK1 (antibody, human IgG1, kappa, name in EU numbering)
heavy: B2 heavy with G238N, Y239G, S241V, D270E, K332A, K398M
light: B2 light
notes: as for B4
KD fold (SG1 = 1) [12]: 0.28 fold
Kd [9]: 1500 nM
Kd [5]: 1500 nM
Kd [6]: 1200 nM
Kd [7]: 1300 nM

B9: M103205H795-MY206/M103202L889-SK1 (antibody, human IgG1, kappa, name in EU numbering)
heavy: B2 heavy with G238N, Y239G, S241V, Q297L, K398P
light: B2 light
notes: as for B4
Kd [13]: 900 nM
Kd [9]: 3000 nM
Kd [6]: 810 nM
Kd [7]: 3500 nM

Now from value to binder:

KD fold (SG1 = 1) [1]: 0.11 fold
KD fold (SG1 = 1) [2]: 0.5 fold
B1: MS1032LO06-SG1012 (antibody, human IgG1, kappa)
heavy: B2 heavy with G238N, Y239G, D270E, K398M, N436A
light: B2 light
notes: tied to rows r7/r25 by row order only; also called MS103205H795-SG1012; copies: 2 + 2

Binding to human FcgRs (parent B3 = 100) [14]: 49
Binding to human FcgRs (parent B3 = 100) [15]: 40
Binding to human FcgRs (parent B3 = 100) [16]: 13
Binding to human FcgRs (parent B3 = 100) [17]: 4
B10: GpH7-B3 N325E / GpL16-k0 (antibody, human IgG1, kappa)
heavy: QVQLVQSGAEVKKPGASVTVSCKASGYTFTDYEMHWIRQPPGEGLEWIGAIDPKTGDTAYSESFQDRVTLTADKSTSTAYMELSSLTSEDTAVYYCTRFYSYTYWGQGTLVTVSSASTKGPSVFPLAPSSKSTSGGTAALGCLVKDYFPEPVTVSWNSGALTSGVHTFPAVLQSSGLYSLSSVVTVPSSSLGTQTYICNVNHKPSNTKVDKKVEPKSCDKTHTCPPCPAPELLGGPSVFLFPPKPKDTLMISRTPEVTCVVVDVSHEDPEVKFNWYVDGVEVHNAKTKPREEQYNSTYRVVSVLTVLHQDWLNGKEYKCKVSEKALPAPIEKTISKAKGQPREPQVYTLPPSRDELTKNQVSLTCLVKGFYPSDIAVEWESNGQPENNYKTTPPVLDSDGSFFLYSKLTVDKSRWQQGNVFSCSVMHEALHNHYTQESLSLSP
light: DIVMTQSPLSLPVTPGEPASISCQASESLVHSNRNTYLHWYLQKPGQSPQLLIYKVSNRFSGVPDRFSGSGSGTDFTLKISRVEAEDVGVYYCSQNTHVPPTFGQGTKVEIERTVAAPSVFIFPPSDEQLKSGTASVVCLLNNFYPREAKVQWKVDNALQSGNSQESVTEQDSKDSTYSLSSTLTLSKADYEKHKVYACEVTHQGLSSPVTKSFNRGEC
notes: also called B3 variant N325E

Binding to human FcgRs (parent B3 = 100) [14]: 63
Binding to human FcgRs (parent B3 = 100) [15]: 112
Binding to human FcgRs (parent B3 = 100) [16]: 3
Binding to human FcgRs (parent B3 = 100) [17]: 2
B11: GpH7-B3 S267L / GpL16-k0 (antibody, human IgG1, kappa)
heavy: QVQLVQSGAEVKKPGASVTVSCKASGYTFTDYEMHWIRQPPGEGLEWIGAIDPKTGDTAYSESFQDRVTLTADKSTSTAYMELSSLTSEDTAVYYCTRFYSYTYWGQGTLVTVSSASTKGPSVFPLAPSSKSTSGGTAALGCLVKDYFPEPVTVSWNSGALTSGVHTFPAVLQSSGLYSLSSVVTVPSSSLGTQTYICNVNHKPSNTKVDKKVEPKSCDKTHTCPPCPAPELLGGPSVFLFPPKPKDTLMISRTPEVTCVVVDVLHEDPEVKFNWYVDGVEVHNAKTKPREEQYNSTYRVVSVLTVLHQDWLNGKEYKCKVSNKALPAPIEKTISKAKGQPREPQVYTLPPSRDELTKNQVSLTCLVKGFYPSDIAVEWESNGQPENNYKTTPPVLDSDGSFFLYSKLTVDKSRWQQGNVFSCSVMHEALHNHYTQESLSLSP
light: B10 light
notes: also called B3 variant S267L

Binding to human FcgRs (parent B3 = 100) [14]: 27
Binding to human FcgRs (parent B3 = 100) [15]: 42
Binding to human FcgRs (parent B3 = 100) [16]: 3
Binding to human FcgRs (parent B3 = 100) [17]: 1
B12: GpH7-B3 S267H / GpL16-k0 (antibody, human IgG1, kappa)
heavy: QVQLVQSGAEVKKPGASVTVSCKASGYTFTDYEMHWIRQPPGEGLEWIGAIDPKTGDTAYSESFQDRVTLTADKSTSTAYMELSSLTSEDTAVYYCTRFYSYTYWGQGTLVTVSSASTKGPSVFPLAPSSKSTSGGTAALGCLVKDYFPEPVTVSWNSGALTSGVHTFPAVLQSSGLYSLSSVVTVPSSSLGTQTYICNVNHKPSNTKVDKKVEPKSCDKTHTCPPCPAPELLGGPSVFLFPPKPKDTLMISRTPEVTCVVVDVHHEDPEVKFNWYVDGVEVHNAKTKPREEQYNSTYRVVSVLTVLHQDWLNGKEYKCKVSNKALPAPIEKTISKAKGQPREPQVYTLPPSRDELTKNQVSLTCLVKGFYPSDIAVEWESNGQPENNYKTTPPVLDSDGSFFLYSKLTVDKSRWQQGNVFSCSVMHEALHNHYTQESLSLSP
light: B10 light
notes: also called B3 variant S267H

Binding to human FcgRs (parent B3 = 100) [14]: 19
Binding to human FcgRs (parent B3 = 100) [15]: 43
Binding to human FcgRs (parent B3 = 100) [16]: 4
Binding to human FcgRs (parent B3 = 100) [17]: -1
B13: GpH7-B3 P238Q / GpL16-k0 (antibody, human IgG1, kappa)
heavy: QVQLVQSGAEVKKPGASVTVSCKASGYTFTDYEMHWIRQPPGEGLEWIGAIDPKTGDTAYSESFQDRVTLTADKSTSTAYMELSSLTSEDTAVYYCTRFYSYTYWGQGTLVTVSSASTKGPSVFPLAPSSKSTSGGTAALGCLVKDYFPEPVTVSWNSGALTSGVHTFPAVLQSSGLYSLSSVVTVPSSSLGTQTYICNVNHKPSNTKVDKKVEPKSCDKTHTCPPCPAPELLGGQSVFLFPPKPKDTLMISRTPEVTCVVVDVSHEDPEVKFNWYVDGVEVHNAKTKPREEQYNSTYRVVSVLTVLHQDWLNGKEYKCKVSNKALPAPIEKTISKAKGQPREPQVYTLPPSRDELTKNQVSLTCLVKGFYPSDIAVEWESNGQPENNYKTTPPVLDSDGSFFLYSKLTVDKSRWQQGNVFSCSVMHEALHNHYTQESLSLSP
light: B10 light
notes: also called B3 variant P238Q
